The target of assay [1] is Nucleolysin TIA-1 (endogenous mouse TIA1) (mouse) (UniProt P52912). As to the kind of experiment: TIA1 IP-MS, WT1 cortex.
For assay [2] the target is unchanged. As to the kind of experiment: TIA1 IP-MS, WT3 cortex.
For assay [3] the target is unchanged. As to the kind of experiment: TIA1 IP-MS, tau KO 1 cortex.
Assay [4] has the same target. As to the kind of experiment: TIA1 IP-MS, tau KO 3 cortex.
Assay [5] has the same target. As to the kind of experiment: TIA1 IP-MS, WT2 cortex.
The target is the same in assay [6]. As to the kind of experiment: TIA1 IP-MS, tau KO 2 cortex.

Chain of UniProt P52912 (P52912 whole entry): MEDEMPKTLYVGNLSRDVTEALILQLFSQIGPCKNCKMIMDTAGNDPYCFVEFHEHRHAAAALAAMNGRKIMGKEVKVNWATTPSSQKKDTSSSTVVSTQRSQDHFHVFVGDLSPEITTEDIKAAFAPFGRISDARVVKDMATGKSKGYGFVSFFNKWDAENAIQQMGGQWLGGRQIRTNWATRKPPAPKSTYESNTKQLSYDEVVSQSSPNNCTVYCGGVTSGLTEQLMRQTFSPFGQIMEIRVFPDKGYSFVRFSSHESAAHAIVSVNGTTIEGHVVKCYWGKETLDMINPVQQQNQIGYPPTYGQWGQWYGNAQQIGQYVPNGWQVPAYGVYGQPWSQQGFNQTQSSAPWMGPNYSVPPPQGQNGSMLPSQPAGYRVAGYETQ

“26S proteasome non-ATPase regulatory subunit 8 (from UniProt Q9CX56 1-353)”: the total ion current (normalized to TIA1 = 1000) in assay [1] worked out at 80.3; in assay [2], 0; in assay [3], 4.11; in assay [4], 0; in assay [5] it was 0; in assay [6] it was 0.
As for “28 kDa heat- and acid-stable phosphoprotein (from UniProt Q3UHX2 1-181)”, the total ion current (normalized to TIA1 = 1000) stood at 0 in assay [1]; 0 in assay [2]; 0 in assay [3]; 0 in assay [4]; 86 in assay [5]; 15.7 in assay [6].
As for “39S ribosomal protein L46, mitochondrial (from UniProt Q9EQI8 1-283)”, the total ion current (normalized to TIA1 = 1000) in assay [1] turned out to be 0; in assay [2], 0; in assay [3], 0; in assay [4], 0; in assay [5] it was 52.7; in assay [6], 0.
For “AP-2 complex subunit alpha-2 (from UniProt P17427 1-938)”, the total ion current (normalized to TIA1 = 1000) in assay [1] is 0; in assay [2], 68.8; in assay [3] it was 0; in assay [4], 0; in assay [5], 128; in assay [6] it was 186.
On to “ATP synthase subunit O, mitochondrial (from UniProt Q9DB20 24-213)”, for which the total ion current (normalized to TIA1 = 1000) in assay [1] is 0; in assay [2] it was 0; in assay [3] it was 0; in assay [4], 0; in assay [5] it was 375; in assay [6] it was 0.
Turning to “ATP-dependent 6-phosphofructokinase, platelet type (from UniProt Q9WUA3 1-784)”, the total ion current (normalized to TIA1 = 1000) in assay [1] was 0; in assay [2], 0; in assay [3], 0; in assay [4] it was 0; in assay [5], 20.2; in assay [6], 67.1.
With “Acetyl-CoA acetyltransferase, mitochondrial (from UniProt Q8QZT1 31-424)”, the total ion current (normalized to TIA1 = 1000) in assay [1] stood at 0; in assay [2] it was 18.1; in assay [3], 0; in assay [4] it was 0; in assay [5] it was 175; in assay [6] it was 70.3.
For the substance “Aconitate hydratase, mitochondrial (from UniProt Q99KI0 28-780)”, the total ion current (normalized to TIA1 = 1000) is 0 in assay [1]; 164 in assay [2]; 0 in assay [3]; 0 in assay [4]; 818 in assay [5]; 421 in assay [6].
On to “Alpha-actinin-4 (from UniProt P57780 1-912)”, for which the total ion current (normalized to TIA1 = 1000) in assay [1] was found to be 0; in assay [2] it was 14.5; in assay [3] it was 0; in assay [4], 0; in assay [5] it was 77; in assay [6], 28.8.
For the substance Amphiphysin (from UniProt Q7TQF7 1-686), the total ion current (normalized to TIA1 = 1000) is 0 in assay [1]; 0 in assay [2]; 0 in assay [3]; 0 in assay [4]; 113 in assay [5]; 0 in assay [6].
Annexin A7 (from UniProt Q07076 1-463): the total ion current (normalized to TIA1 = 1000) in assay [1] came out at 0; in assay [2], 44.8; in assay [3], 0; in assay [4], 1120; in assay [5] it was 42.4; in assay [6] it was 71.9.
For “Aspartate aminotransferase, cytoplasmic (from UniProt P05201 2-413)”, the total ion current (normalized to TIA1 = 1000) in assay [1] amounted to 0; in assay [2], 17; in assay [3], 0; in assay [4], 0; in assay [5] it was 204; in assay [6], 136.
As to “Band 4.1-like protein 2 (from UniProt O70318 2-988)”, the total ion current (normalized to TIA1 = 1000) in assay [1] stood at 16.7; in assay [2] it was 0; in assay [3], 25.8; in assay [4], 0; in assay [5], 0; in assay [6] it was 0.
With “CaM kinase-like vesicle-associated protein (from UniProt Q3UHL1 1-512)”, the total ion current (normalized to TIA1 = 1000) in assay [1] turned out to be 0; in assay [2], 0; in assay [3], 0; in assay [4], 0; in assay [5], 92.1; in assay [6] it was 0.
Take “Calcium-binding mitochondrial carrier protein Aralar1 (from UniProt Q8BH59 2-677)”: the total ion current (normalized to TIA1 = 1000) in assay [1] worked out at 0; in assay [2] it was 21.6; in assay [3] it was 0; in assay [4] it was 0; in assay [5], 181; in assay [6], 231.
Turning to “Calcium-transporting ATPase (from UniProt Q6Q477 1-1205)”, the total ion current (normalized to TIA1 = 1000) came to 0 in assay [1]; 0 in assay [2]; 0 in assay [3]; 0 in assay [4]; 274 in assay [5]; 144 in assay [6].
“Carbonic anhydrase 2 (from UniProt P00920 2-260)”: the total ion current (normalized to TIA1 = 1000) in assay [1] worked out at 0; in assay [2] it was 50.1; in assay [3], 0; in assay [4] it was 0; in assay [5], 38.6; in assay [6], 58.4.
